Results taken from patent US20170166934A1.

Legend:
[1] = test system: T1, wild type Penicillium oxalicum glucoamylase
T1 sequence: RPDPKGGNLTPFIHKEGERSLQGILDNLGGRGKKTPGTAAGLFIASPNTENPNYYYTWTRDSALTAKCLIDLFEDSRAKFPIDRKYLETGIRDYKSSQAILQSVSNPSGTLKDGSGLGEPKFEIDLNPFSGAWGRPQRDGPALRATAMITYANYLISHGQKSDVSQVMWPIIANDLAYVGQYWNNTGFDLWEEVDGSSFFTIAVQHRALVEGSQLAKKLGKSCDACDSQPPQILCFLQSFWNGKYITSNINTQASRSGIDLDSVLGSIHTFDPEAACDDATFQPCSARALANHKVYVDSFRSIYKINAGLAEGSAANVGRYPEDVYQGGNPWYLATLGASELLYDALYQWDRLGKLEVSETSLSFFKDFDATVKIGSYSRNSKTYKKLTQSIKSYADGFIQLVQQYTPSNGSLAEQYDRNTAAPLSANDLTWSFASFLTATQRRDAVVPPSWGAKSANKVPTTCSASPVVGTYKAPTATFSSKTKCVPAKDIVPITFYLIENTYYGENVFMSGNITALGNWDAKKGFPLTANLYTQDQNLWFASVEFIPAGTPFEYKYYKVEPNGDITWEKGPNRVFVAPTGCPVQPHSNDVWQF

[2] = biological target: Penicillium oxalicum glucoamylase variant PE001 (SEQ ID NO: 14 + K79V substitution) (Penicillium oxalicum); test: cell-based or functional assay
[3] = biological target: wild type Penicillium oxalicum glucoamylase (Penicillium oxalicum); test: cell-based or functional assay

aorsin was tested, and the “cleaved glucoamylase (ca. 60 kDa) on SDS-PAGE after overnight protease treatment at 4 °C” value [1] was 60% and the “cleaved glucoamylase (ca. 60 kDa) on SDS-PAGE after overnight protease treatment at 32 °C” value [1] was 90%.
With aorsin (enzyme) the intact glucoamylase (ca. 70 kDa) on SDS-PAGE after overnight protease treatment at 4 °C [2] was 100%, the intact glucoamylase (ca. 70 kDa) on SDS-PAGE after overnight protease treatment at 32 °C [2] was 100% and the intact glucoamylase (ca. 70 kDa) on SDS-PAGE after overnight protease treatment at 4 °C [3] was 40%. For the same substance, the intact glucoamylase (ca. 70 kDa) on SDS-PAGE after overnight protease treatment at 32 °C [3] was 10%.
In the case of aspergillopepsin I, the “cleaved glucoamylase (ca. 60 kDa) on SDS-PAGE after overnight protease treatment at 32 °C” value [1] is reported as 10%.
aspergillopepsin I (enzyme) showed an intact glucoamylase (ca. 70 kDa) on SDS-PAGE after overnight protease treatment at 4 °C [2] of 100%, an intact glucoamylase (ca. 70 kDa) on SDS-PAGE after overnight protease treatment at 32 °C [2] of 100% and an intact glucoamylase (ca. 70 kDa) on SDS-PAGE after overnight protease treatment at 4 °C [3] of 100%. It also gave an intact glucoamylase (ca. 70 kDa) on SDS-PAGE after overnight protease treatment at 32 °C [3] of 90%.
